Data on 40 sequences can be found in the nanobody polyreactivity screen of Harvey et al. (2022).

The nature of this data set: yeast display, Sf9 membrane polyspecificity reagent, FACS + sequencing; frameworks hold sequencing errors. Put shortly:
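Using colony PCR, genes from sorted yeast display clones were amplified, then sequenced on MiSeq at 2 × 250 and filtered by CDR length. The clones had been stained with 10% biotinylated, detergent-solubilized Sf9 membrane reagent for 1 hour at 4 °C and sorted by FACS into low and high (top ~1%) gates on anti-HA and streptavidin fluorescence. Polyreactivity labels come from the gate of origin.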
On to “QVQLVESGGGLVQAGGSLRLSCAASGFTFWYNAMGWYRQAPGKERELVAAITSAGSTSYADSVKGRFTISRDNAKNTVYLQMNSLKPEDTAVYYCNADLASSFSRANKYDYWGQGTQVTVSS”, for which the “polyreactivity (PSR sort gate)” value was “low polyreactivity”.
The result for “QVQLVESGGGLVQAGGSLRLSCAASGFTFWYYAMGWYRQAPGKEREMVAAISRSGTSTYYADSVKGRFTISRDNAKNTVYLQMNSLKPEDSAVYYCNVLRVKSITYLMDYWGQGTQVTVSS” reads “high polyreactivity”; that for “QVQLVESGGGLVQAGGSLRLSCAASGFTFYANAMGWYRQAPGKERELVAAISRGVSTTYADSVKGRFTISRDNAKNTVYLQMNRLKPEDTAVYYCAADGNVIAQGYDYWGQGTQVTVSS”, “low polyreactivity”.
For “QVQLVESGGGLVQAGGSLRLSCAASGFTFYANAMGWYRQAPGKERELVAAITSSGGSTYYADSVKGRFTISRDNAKNTVYLQMNSLKPEDSAVYYCNSLRLYSIPRLYGYWGQGTQVTVSS” the value was “high polyreactivity”; for “QVQLVESGGGLVQAGGSLRLSCAASGFTFYAYAMGWYRPAPGKERELVAALTGRGGSTYYADSVKGRFTISRDNAKNTVYLQMNSLKPEDTAVYYCNKVKQSDKFNNFSNDYWGQGTQVTVSS”, “high polyreactivity”; for “QVQLVESGGGLVQAGGSLRLSCAASGFTFYAYAMGWYRQAPGKERELVAVITGGGSTYYADSVKGRFTISRDNAKNTVYLQMNSLKPEDTAVYYCAATYRGWLVGNGVWYWYYYWGQGTQVTVSS”, “high polyreactivity”.
For “QVQLVESGGGLVQAGGSLRLSCAASGFTFYDYAMGWYRQAPGKERELVAAISWDGDRTYYADSVNGRFTISRDNAKNTVYLQMNSLKPEDTAVYYCNAEYSSFSDVQKDSDMDYWGQGTQVTVSS” the value was “low polyreactivity”.
Take “QVQLVESGGGLVQAGGSLRLSCAASGFTFYFYAMGWYRQAPGKERELVAAISRGGSTTYADSVKGRFTISRDNAKNTVYLQMNSLKPEDTAVYYCAKDRRRWYYTRDYWGQGTQVTVSS”: the “polyreactivity (PSR sort gate)” value was “low polyreactivity”.
For “QVQLVESGGGLVQAGGSLRLSCAASGFTFYGNAMGWYRQAPGKERELVAAISLSDGYADSVKGRFTISRDNAKNTVYLLMNSLKPEDTAVYYCAKDRTDSKRREHDYWGQGTQVTVSS” the value was “low polyreactivity”; for “QVQLVESGGGLVQAGGSLRLSCAASGFTFYGYAMGWYRQAPGKDRELVARITVRGSTTYYADSVKGRFTISRDNAKNTVYLQMNSLKPEDTAFYYCNASWVYSRFRPLDYDLDYWGQGTQVTVSS”, “low polyreactivity”; for “QVQLVESGGGLVQAGGSLRLSCAASGFTFYGYAMGWYRQAPGKERELVAAITSGGSTNYADSVKGRFTISRDNAKNTVYLQMNSLKPEDTAVYYCAASPSYWYLYVNYSYDYWGQGTQVTVSS”, “high polyreactivity”.
The result for “QVQLVESGGGLVQAGGSLRLSCAASGFTFYGYGMGWYRPAPGKERELVAVITSGGSTKYADSVKGRFTISRDNAKNTVYLQMNSLKPEDTAVYYCNVVGGRYLYSAYDYWGQGTQVTVSS” reads “low polyreactivity”.
For “QVQLVESGGGLVQAGGSLRLSCAASGFTFYIYAMGWYRPAPRNERELLAAITGSGGRTYYADSVKGRFTISRDYAKNTVYLQMNRLKPEETAVYYSNVLLQRVYGTEPSFDYWGQGTQVTVSS”, the “polyreactivity (PSR sort gate)” value is listed as “high polyreactivity”.
The result for “QVQLVESGGGLVQAGGSLRLSCAASGFTFYIYGMGWYRPAPGKERELVAAITWSGGRTYYADSVKGRFTISRDNAKNTVYLHMNSLKPEDTAVYYCAASYPGLSYHKYEYWGHGTQVTVSS” reads “high polyreactivity”.
For “QVQLVESGGGLVQAGGSLRLSCAASGFTFYKNTMGWYRQAPAKARELVAAISSSGSSTYYADSVKGRFTISRDYAKNTVYLQMNSLKPEDTAVYYCAAGRFAYHDDYWGQGTQVTVSS” the value was “high polyreactivity”.
The result for “QVQLVESGGGLVQAGGSLRLSCAASGFTFYKNTMGWYRQAPGKERELVAAISGSGGRTYYADSVKGRFTISRDNAKNTVYLQMNSLKPEDTAVYYCNAAARYRWQYDYSLYEYGHWGQGTQVTVSS” reads “high polyreactivity”.
As for “QVQLVESGGGLVQAGGSLRLSCAASGFTFYKYAMGWYRQAPGKEREFVAAISSSGDSTYYADSVKGRFTISRDNAKNTVYLQMNSLKPEDTAVYYCAARRRGTSTTWGQGTQVTVSS”, the “polyreactivity (PSR sort gate)” value is given as “high polyreactivity”.
For “QVQLVESGGGLVQAGGSLRLSCAASGFTFYKYAMGWYRQAPGKERELVAGISSRGTRTYYADSVKGRFTISRDNAKNTVYLQMNSLKPEDTAVYDCAADSNTVNYDYWGQGTQVTVSS” the value was “high polyreactivity”.
For “QVQLVESGGGLVQAGGSLRLSCAASGFTFYLYAMGWYRPAPGKERELVAAITYSAGSTYYADSVKGRFTISRDNEKNTVYLQMNSLKPEDTAVFSCAKRGHYRAWGGGGYWGQGTQVTVSS” the value was “low polyreactivity”; for “QVQLVESGGGLVQAGGSLRLSCAASGFTFYLYGMGGYRQAPGKERELVAAIRSGGSTNYADSVKGRFSISRDNAKNTVYLQMNSLKPEDTAVYYCATDIHSVHNNRDKPDYDYWGQGSQVTVSS”, “low polyreactivity”.
For “QVQLVESGGGLVQAGGSLRLSCAASGFTFYLYTMGWYRQAPGKERQLVAAISGSGGSTYYADSVKGRFTISRDNAKITVYLQMNSLKPEDTAVYYCAASPVRVGKVIDRRDYWGQGTQVTVSS” the value was “high polyreactivity”; for “QVQLVESGGGLVQAGGSLRLSCAASGFTFYLYVMGWYRQAPGTEREFVAAITGSGTSTYYADSVKGRFTISRDNAKNTVYLQMNSLKPEDTAVYYCNAKRDRYFYTVKYDYWGQGTQVTVSS”, “low polyreactivity”.
Turning to “QVQLVESGGGLVQAGGSLRLSCAASGFTFYPNAMGWYRQAPGKERELVAAISRSGSSTYYADSVKGRFTISRDNAKNTVYLQMNSLKPEDTAVYYCNRYGRQYDFYYWGQGTQVTVSS”, the “polyreactivity (PSR sort gate)” value is “high polyreactivity”.
With “QVQLVESGGGLVQAGGSLRLSCAASGFTFYPNTMGWYRQAPGKERELVAAISSSGGRTYYADSVKGRFTISRDNAKNTVYLQMNSLKPEDTAVYYCNAAKWLTSGGLDYWGLGTQVTVSS”, the “polyreactivity (PSR sort gate)” value was “high polyreactivity”.
Regarding “QVQLVESGGGLVQAGGSLRLSCAASGFTFYPYAMGWYRQAPGKERELVAAISNGDSTHYADSVKGRFTISRDNAKNTVYLQMNSLKPEDTAVYYCAAVRGYPSRITSYVYTYGYWGQGTQVTVSS”, the “polyreactivity (PSR sort gate)” value is “low polyreactivity”.
On to “QVQLVESGGGLVQAGGSLRLSCAASGFTFYPYAMGWYRQAPGTERELVAAIRGSGGSTHYADSVKGRFTISRDNAKNTVYLQMNSLKPEDTAVYYCAARIRGYRQYEYYYWGQGTQVTVSS”, for which the “polyreactivity (PSR sort gate)” value was “high polyreactivity”.
“QVQLVESGGGLVQAGGSLRLSCAASGFTFYRNAMGWYRHAPGTERELVAAISWSGDSTYYADSVKGRFTISRDNAKNTVYLQMNSLKPEDTAVYYCAKERYFYYPWVTTYTSNYWGQGTQVTVSS”: the “polyreactivity (PSR sort gate)” value is “low polyreactivity”.
The result for “QVQLVESGGGLVQAGGSLRLSCAASGFTFYRNAMGWYRQAPGKERELVARIRGTGGRTYYADSVKGRFTISRDNAKNTVYLQMNSLKPEDTAVYYCNVGRGYSFANGDYWGQGTQVTVSS” reads “high polyreactivity”.
The result for “QVQLVESGGGLVQAGGSLRLSCAASGFTFYRNPMGWYRQAPGKERELVAAISARGVSTYYADSVKGRFTISRDNAKNTVYLQMNSLKPEDTAVYYFSAVNYIYTGGGTYYYWGQGTQVTVSS” reads “high polyreactivity”; that for “QVQLVESGGGLVQAGGSLRLSCAASGFTFYRYAMGWYRPAPGKERELVAAITRVGSTYYADSVKGRFTISRDNAKNTVYLQMNSLKPEDTAVYYCNARGTVPWYGYDYWGQGTQVTVSS”, “high polyreactivity”.
The result for “QVQLVESGGGLVQAGGSLRLSCAASGFTFYRYAMGWYRQAPGKERELVAAINWSGVSTYYADSVKGRFTISRDNAKNTVYLQMNSLKPEDTAVYYCAADTYAGYNGNYWGQGTQVTVSS” reads “high polyreactivity”; that for “QVQLVESGGGLVQAGGSLRLSCAASGFTFYRYAMGWYRQAPGKERELVAAISSSGGTTYYADSVKGRFTISRDNAKNTVYLQMNSLKPEDTAVYYCAARGWPTWGWGYDYWGQGTQVTVSS”, “high polyreactivity”; that for “QVQLVESGGGLVQAGGSLRLSCAASGFTFYRYAMGWYRQAPGKERELVAAISWRGTSTYYADSVKGRFTISRDNAKNTVYLQMNSLKPEDTAVYYCAAPRNFGPYTSPRQPLYNYWGQGTQVTVSS”, “high polyreactivity”.
With “QVQLVESGGGLVQAGGSLRLSCAASGFTFYRYAMGWYRQAPGKERELVAAITNGGGTYYADSVKGRFTISRDNAKNTVYLQMNSLKPEDTAVYYCAAKSRLPTQGLGIYYWGQGTQVSVSS”, the “polyreactivity (PSR sort gate)” value is recorded as “high polyreactivity”.
Turning to “QVQLVESGGGLVQAGGSLRLSCAASGFTFYRYAMGWYRQAPGKERELVAAITRTGGSTYYADSVKGRFTISRDIAKNTVYLQMISLKPEDTAVYYCAARVHGTGTLKYPNYYWGQGTQVTVSS”, the “polyreactivity (PSR sort gate)” value was “high polyreactivity”.
The result for “QVQLVESGGGLVQAGGSLRLSCAASGFTFYRYAMGWYRQAPGKERELVAAITSGGDTYYADSVKGRFTISRDNAKNTVYLQMNSLKPEDTAVYYCAAAPRYGYGLASDSIFDYWGQGTQVTVSS” reads “high polyreactivity”.
For “QVQLVESGGGLVQAGGSLRLSCAASGFTFYRYAMGWYRQAPGKERELVAAITWSGGSTYYADSVKGRFTISRDNAKNTVYFQMNSLKPEDTAVYYCAASRWIFQVNDYDYWGQGTQGTVSS” the value was “high polyreactivity”; for “QVQLVESGGGLVQAGGSLRLSCAASGFTFYRYAMGWYRQAPGKERELVAALSGSGGSTYYADSVKGPFTISRDNAKTTVYLQMNSLNPEDTAVYYCNTVWFYGAKYDYWGQGTQVTVSS”, “high polyreactivity”; for “QVQLVESGGGLVQAGGSLRLSCAASGFTFYRYAMGWYRQAPGKERELVARISWSGGSTYYADSVKGRFTISRDNAKNTVYLQMNSLKPEDTAVYYCNARRLFESWKYDYWGQGTQVTVSS”, “high polyreactivity”.
The result for “QVQLVESGGGLVQAGGSLRLSCAASGFTFYRYGMGWYRQAPGKERELVAAINNDGTTNYADSVKGRFTISRDNAKNTVYLQMNSLKPEDTAVYYCAADYYRGRYSSRYDYWGQGTQVTVSS” reads “low polyreactivity”.
